Data from publication doi:10.1101/2022.12.01.518327 (bioRxiv, 2022).
Where a chain is given by its changes, count along the chain named. Names and notes keep the numbering of the source. Values belong to the binder of their own block, whether it stands above or below them.

Columns and labels:
[1] = target: T1, mouse LEP-R extracellular domain (mLEP-RECD) (mouse, UniProt P48356 22-839); assay: SEC-MALLS
T1 sequence (looked up): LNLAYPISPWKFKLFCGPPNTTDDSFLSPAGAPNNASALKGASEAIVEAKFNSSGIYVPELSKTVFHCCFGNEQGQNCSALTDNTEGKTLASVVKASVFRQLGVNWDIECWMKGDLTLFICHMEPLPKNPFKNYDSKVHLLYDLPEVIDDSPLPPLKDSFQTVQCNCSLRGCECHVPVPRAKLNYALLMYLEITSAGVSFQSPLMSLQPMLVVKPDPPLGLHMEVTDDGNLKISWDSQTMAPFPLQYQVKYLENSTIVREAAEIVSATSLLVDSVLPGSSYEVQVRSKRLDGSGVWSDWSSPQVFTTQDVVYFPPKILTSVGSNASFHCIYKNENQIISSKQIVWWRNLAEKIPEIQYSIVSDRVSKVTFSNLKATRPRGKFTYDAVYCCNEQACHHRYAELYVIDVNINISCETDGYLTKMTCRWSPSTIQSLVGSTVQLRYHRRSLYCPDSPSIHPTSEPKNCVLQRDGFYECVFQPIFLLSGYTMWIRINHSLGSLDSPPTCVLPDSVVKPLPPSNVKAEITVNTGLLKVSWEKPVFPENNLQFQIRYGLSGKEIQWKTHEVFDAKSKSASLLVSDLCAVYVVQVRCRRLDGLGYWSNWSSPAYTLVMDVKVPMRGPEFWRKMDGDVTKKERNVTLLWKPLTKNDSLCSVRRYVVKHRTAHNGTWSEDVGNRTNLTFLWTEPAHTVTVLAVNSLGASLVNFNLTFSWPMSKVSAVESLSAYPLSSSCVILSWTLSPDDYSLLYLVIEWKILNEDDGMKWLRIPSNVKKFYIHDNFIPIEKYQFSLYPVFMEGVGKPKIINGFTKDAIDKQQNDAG

[2] = target: T2, human LEP-R extracellular domain (hLEP-RECD), glycosylated (human, UniProt P48357 22-839); assay: SEC-MALLS
T2 sequence (looked up): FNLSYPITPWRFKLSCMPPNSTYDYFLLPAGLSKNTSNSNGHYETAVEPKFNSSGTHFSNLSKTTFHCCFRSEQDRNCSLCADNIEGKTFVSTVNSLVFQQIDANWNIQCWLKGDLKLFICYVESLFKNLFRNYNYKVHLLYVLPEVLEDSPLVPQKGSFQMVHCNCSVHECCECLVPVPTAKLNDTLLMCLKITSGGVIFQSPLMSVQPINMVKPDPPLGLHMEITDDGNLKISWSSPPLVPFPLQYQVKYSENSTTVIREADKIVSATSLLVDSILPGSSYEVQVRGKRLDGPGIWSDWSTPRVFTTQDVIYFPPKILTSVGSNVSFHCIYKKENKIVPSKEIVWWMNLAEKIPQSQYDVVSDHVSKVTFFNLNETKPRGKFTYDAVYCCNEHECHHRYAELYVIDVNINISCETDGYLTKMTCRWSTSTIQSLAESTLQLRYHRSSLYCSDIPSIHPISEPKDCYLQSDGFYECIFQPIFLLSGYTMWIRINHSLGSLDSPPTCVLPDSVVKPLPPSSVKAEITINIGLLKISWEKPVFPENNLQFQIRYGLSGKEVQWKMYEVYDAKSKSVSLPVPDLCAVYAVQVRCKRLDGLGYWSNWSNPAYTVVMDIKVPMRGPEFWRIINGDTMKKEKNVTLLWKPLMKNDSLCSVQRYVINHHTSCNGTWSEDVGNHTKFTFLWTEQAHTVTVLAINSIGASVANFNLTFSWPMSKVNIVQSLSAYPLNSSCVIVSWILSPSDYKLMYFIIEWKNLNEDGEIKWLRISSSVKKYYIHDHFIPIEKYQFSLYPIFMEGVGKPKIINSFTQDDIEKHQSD

[3] = target: T3, mouse LEP-R Ig-CRH2 fragment, residues 328-633, C602S (mouse, UniProt P48356 328-633, C602S); assay: SEC-MALLS
T3 sequence (looked up): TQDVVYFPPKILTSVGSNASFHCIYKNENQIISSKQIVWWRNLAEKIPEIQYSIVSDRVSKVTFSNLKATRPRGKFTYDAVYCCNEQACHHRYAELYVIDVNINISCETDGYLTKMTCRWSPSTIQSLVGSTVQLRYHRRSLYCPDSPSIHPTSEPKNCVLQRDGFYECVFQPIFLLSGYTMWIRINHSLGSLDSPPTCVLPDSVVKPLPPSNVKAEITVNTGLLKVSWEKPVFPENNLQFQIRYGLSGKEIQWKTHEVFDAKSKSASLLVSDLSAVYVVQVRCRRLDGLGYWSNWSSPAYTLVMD

[4] = target: T1, mouse LEP-R extracellular domain …; assay: SEC-MALLS + AUC
[5] = target: T1, mouse LEP-R extracellular domain …; assay: BLI
[6] = target: T1, mouse LEP-R extracellular domain …; assay: cryo-EM structure
[7] = target: T3, mouse LEP-R Ig-CRH2 fragment, residues …; assay: crystal structure

B1: murinized human Leptin I85V/M89L/G132D/G139L (ligand, UniProt P41159 22-167, looked up)
chain: VPIQKVQDDTKTLIKTIVTRINDISHTQSVSSKQKVTGLDFIPGLHPILTLSKMDQTLAVYQQVLTSLPSRNVIQISNDLENLRDLLHVLAFSKSCHLPWASGLETLDSLDGVLEASLYSTEVVALSRLQGSLQDMLWQLDLSPGC
binding result [1]: binds

B2: mouse Leptin (mLeptin), wild type, as used in SEC-MALLS, AUC, BLI (in solution) and on cells (ligand, UniProt P41160 22-167, looked up)
chain: VPIQKVQDDTKTLIKTIVTRINDISHTQSVSAKQRVTGLDFIPGLHPILSLSKMDQTLAVYQQVLTSLPSQNVLQIANDLENLRDLLHLLAFSKSCSLPQTSGLQKPESLDGVLEASLYSTEVVALSRLQGSLQDILQQLDVSPEC
binding result [2]: binds
binding result [3]: binds
binding result [4]: binds

B3: in vitro biotinylated mouse Leptin (ligand, UniProt P41160 22-167, looked up)
chain: B2 chain
modifications: biotin (NHS-PEG4-biotin, in vitro)
binding result [5]: binds

B7: Leptin a1 antagonist (141ST142/AA), as used with mLEP-RECD (ligand, UniProt P41160 22-167, looked up)
chain: B2 chain with S120A, T121A
stoichiometry N [4]: 1

Results, then the binder that gave them:

binding result [6]: binds
B4: mouse Leptin refolded from E. coli, N-terminal His-tag removed with TEV protease (ligand, UniProt P41160 22-167, looked up)
chain: B2 chain

binding result [7]: binds
B5: tag-less mouse Leptin refolded from E. coli inclusion bodies (ligand, UniProt P41160 22-167, looked up)
chain: B2 chain

stoichiometry N [4]: 1
B6: mouse Leptin a2 antagonist (60LDFI63/AAAA) (ligand, UniProt P41160 22-167, looked up)
chain: B2 chain with L39A, D40A, F41A, I42A
